Experimental findings from the RNAGym collection of RNA variant scans (doi:10.1093/molbev/msab373) are described below.

B1: Azoarcus group I ribozyme (parent)
chain: GUGCCUUGCGCCGGGAAACCACGCAAGGGAUGGUGUCAAAUUCGGCGAAACCUAAGCGCCCGCCCGGGCGUAUGGCAACGCCGAGCCAAGCUUCGGCGCCUGCGCCGAUGAAGGUGUAGAGACUAGACGGCACCCACCUAAGGCAAACGCUAUGGUGAAGGCAUAGUCCAGGGAGUGGCGAAAGUCACACAAACCGG

Variants of B1 are the subject of the data set. Nature of the data set: reverse-splicing fitness (ratio to wild type); higher = more active; in vitro selection; Mg2+ level not given. The method in brief:
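An in vitro group I ribozyme library with randomized positions was T7-transcribed and gel-purified. In triplicate, 10 pmol RNA in EPPS pH 7.5 was reacted with 50 pmoles of a 30-nt RNA substrate for 1 h at 37 °C across several added MgCl2 levels (1–48 mM), then stopped with EDTA. Products were reverse transcribed from a substrate-complementary primer, PCR-amplified and sequenced (HiSeq 4000). Fitness is a variant's read proportion after selection over that before, normalised to wild type.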
As to C82A A111U A120U A145C C150U C169U U176C, the reverse-splicing fitness was 0.00282.

Regarding C82A A120G A145G C169U U176A, the reverse-splicing fitness was 0.022.

Consider C82A A111U A145G C150A, for which the reverse-splicing fitness came to 0.0371.

For C82U A145U C150U, the reverse-splicing fitness is 0.438.

On to C82A A111U A120C A145G C169A U176G, for which the reverse-splicing fitness is 0.00699.

With C82G A120C A145C C150A U176A, the reverse-splicing fitness came to 0.012.

As for A111G A120U A145U, the reverse-splicing fitness came out at 0.759.

Turning to C82A A111C A120G A145U C150G C169U U176C, the reverse-splicing fitness came out at 0.0111.

As for C82U A111G A120C A145U C150G C169A, the reverse-splicing fitness was found to be 0.00804.

With C82U A111C A145G C150G C169A U176G, the reverse-splicing fitness came out at 0.0072.

Regarding C82A A111U A120U A145U C150A C169A U176A, the reverse-splicing fitness turned out to be 0.00303.

Take C82U A111U C150G C169A U176G: the reverse-splicing fitness worked out at 0.00774.

With A111C A120U A145G U176C, the reverse-splicing fitness is 0.277.

Take A145G C150G C169A: the reverse-splicing fitness is 0.0272.

With C82A A111U A120G C150U C169A U176A, the reverse-splicing fitness worked out at 0.0156.

In the case of C82G A111C A120U U176C, the reverse-splicing fitness came out at 0.0175.

In the case of C150A C169A U176C, the reverse-splicing fitness was 0.0227.

With C82G A111C A145U C150U C169G U176C, the reverse-splicing fitness is 0.0196.

For the variant C82A A111U A120C A145G C150U U176C, the reverse-splicing fitness stood at 0.0246.

Consider C82A A111G C169U U176C, for which the reverse-splicing fitness was 0.0142.

For the variant C82A A111U A120G C169U U176G, the reverse-splicing fitness is 0.00615.

Take C82U A111G A120G A145G C150U C169U U176C: the reverse-splicing fitness was 0.0162.

Consider A111C A120C A145U C169G U176A, for which the reverse-splicing fitness stood at 0.0103.

As to C82G A111U A120C A145U, the reverse-splicing fitness came to 0.0517.

For the variant C82U A111G A120G A145G C169A, the reverse-splicing fitness amounted to 0.0117.

Take C82G A111U A120U A145C C150A U176A: the reverse-splicing fitness came out at 0.00311.

As for C82G A111C A120G A145G C150G C169G, the reverse-splicing fitness was found to be 0.00765.

For the variant C82G A111U A120U A145U C150G C169G U176G, the reverse-splicing fitness is 0.0021.

In the case of C82A A111U A145U C150G C169A U176A, the reverse-splicing fitness came to 0.0106.

For the variant A111C A120C A145C C169A U176A, the reverse-splicing fitness came to 0.0126.

In the case of A120C A145C C169G U176C, the reverse-splicing fitness worked out at 0.0103.

Regarding C82G A120U A145C C150A C169G, the reverse-splicing fitness came out at 0.00199.

Turning to C82G A120U A145C C150G U176C, the reverse-splicing fitness is 0.00907.

On to A111C A120C A145U, for which the reverse-splicing fitness came out at 0.589.

For the variant C82U A111C A120G C150A C169G U176C, the reverse-splicing fitness turned out to be 0.0202.

For the variant C82A A145G C150A C169U, the reverse-splicing fitness stood at 0.0112.

Regarding A120C C150A C169A U176G, the reverse-splicing fitness was determined as 0.00451.

For the variant C82G A120G C150G U176A, the reverse-splicing fitness stood at 0.00652.

Regarding C82U A145C C150U C169A U176A, the reverse-splicing fitness worked out at 0.00827.

Consider C82A A111U A120G A145C C150G U176C, for which the reverse-splicing fitness was 0.00759.

With C82A A120U A145G C169A U176C, the reverse-splicing fitness amounted to 0.00257.

As to A120G C150G C169U U176G, the reverse-splicing fitness is 0.00662.

On to C82U A111C A120G C169U U176A, for which the reverse-splicing fitness is 0.0158.

On to C82G A145C C150U C169G U176A, for which the reverse-splicing fitness was found to be 0.019.

On to C82G C150A C169U, for which the reverse-splicing fitness is 0.0101.

In the case of C82U A111G A120C C150A C169A, the reverse-splicing fitness is 0.0107.

In the case of C82G A111U A120U A145C C150A C169U U176G, the reverse-splicing fitness came to 0.00177.

As for C82U A111U A120C C150A C169U U176C, the reverse-splicing fitness was determined as 0.0203.

As to C82G A120U A145U C169A U176C, the reverse-splicing fitness turned out to be 0.00205.

Turning to A111C A120U A145G C150A C169A U176C, the reverse-splicing fitness worked out at 0.00438.

Regarding C82G A111G A120C A145U C150A C169U U176A, the reverse-splicing fitness turned out to be 0.0146.

As to C82A A120C A145G C169G U176G, the reverse-splicing fitness is 0.0041.

As for C82G A111G A120U A145C C150G C169U U176C, the reverse-splicing fitness was found to be 0.00238.

Turning to A111C A120C A145U C150U C169G U176G, the reverse-splicing fitness amounted to 0.00667.

Take C82G A111U A120G C150U U176G: the reverse-splicing fitness was 0.011.

For C150G C169U U176C, the reverse-splicing fitness turned out to be 0.0326.

As to C82G A111U A120C A145U C150G C169A U176C, the reverse-splicing fitness turned out to be 0.0107.

Consider A120G A145U C150A C169U U176A, for which the reverse-splicing fitness is 0.0594.

As to C82G A111U A120U C150U C169U U176A, the reverse-splicing fitness turned out to be 0.0052.

As to C82A A145G C150U C169U U176G, the reverse-splicing fitness is 0.00555.

In the case of A111G A120U A145G C150A C169G U176G, the reverse-splicing fitness was 0.00256.

With C82U A111U A120C A145U, the reverse-splicing fitness was 0.0286.

Consider C82A A120G A145U C150U C169U U176G, for which the reverse-splicing fitness stood at 0.00449.

As for C82U A111G A120C A145C U176G, the reverse-splicing fitness was 0.00487.

As to C82A A111G A145G C150U C169G U176C, the reverse-splicing fitness came out at 0.0198.

Take C82G A111U A120C A145C C150G C169A U176G: the reverse-splicing fitness came out at 0.00634.

For C82G A120U A145C C150G C169G U176C, the reverse-splicing fitness came out at 0.00209.

C82G A111C A120C A145U C150U C169A U176C: the reverse-splicing fitness was found to be 0.0124.

C82A A111G A120C A145U C150A: the reverse-splicing fitness came out at 0.0115.

C82A A111U A120C A145C C150U: the reverse-splicing fitness is 0.0149.

Regarding C82A A145C C150A C169A U176C, the reverse-splicing fitness is 0.00566.

Regarding C82G A111G A120C A145G C169U U176A, the reverse-splicing fitness is 0.0142.

On to C82G A111U A120G A145C C150G C169G U176G, for which the reverse-splicing fitness stood at 0.00464.

As for C82A A111U A120C C150A C169A, the reverse-splicing fitness is 0.0122.

A145G C150G C169A U176C: the reverse-splicing fitness came to 0.0194.

For C82U A111C A120G A145C C150G U176G, the reverse-splicing fitness turned out to be 0.00269.

Turning to C82U A111C A145C C150G U176G, the reverse-splicing fitness amounted to 0.00264.

On to C82G A111C A120U A145C C150G C169A U176G, for which the reverse-splicing fitness was determined as 0.00274.

For C82G A111U A120U A145U C150G C169U U176A, the reverse-splicing fitness stood at 0.00286.

Regarding A111U A120G A145G C150U C169A, the reverse-splicing fitness was 0.0845.

For A120U A145C C150A C169A U176A, the reverse-splicing fitness worked out at 0.00216.

As to C82A A111C A120U A145G C150A C169A U176C, the reverse-splicing fitness came out at 0.00537.

Take A111C A120C A145C C150U C169U U176C: the reverse-splicing fitness stood at 0.0237.

On to C82U A111G A120G A145U C169G U176A, for which the reverse-splicing fitness stood at 0.0112.
